Test results from the Immune Epitope Database (IEDB).

Assays:
[1] = target: HLA-A*03:01; test: IEDB peptide-MHC binding, purified MHC/competitive/radioactivity; ≥ and ≤ were set here for values at or beyond the usual limits of such assays
[2] = target: HLA-A*68:01; test: IEDB peptide-MHC binding, cellular MHC/competitive/fluorescence; ≥ and ≤ were set here for values at or beyond the usual limits of such assays
[3] = target: HLA-A*33:01; test: as above
[4] = target: HLA-A*11:01; test: as above
[5] = target: HLA-A*31:01; test: as above
[6] = target: HLA-B*54:01; test: IEDB peptide-MHC binding, purified MHC/competitive/radioactivity; ≥ and ≤ were set here for values at or beyond the usual limits of such assays
[7] = target: HLA-B*35:01; test: as above
[8] = target: HLA-B*53:01; test: as above
[9] = target: HLA-B*07:02; test: IEDB peptide-MHC binding, cellular MHC/competitive/fluorescence; ≥ and ≤ were set here for values at or beyond the usual limits of such assays
[10] = target: HLA-B*51:01; test: as above
[11] = target: HLA-A*68:01; test: IEDB peptide-MHC binding, purified MHC/competitive/radioactivity; ≥ and ≤ were set here for values at or beyond the usual limits of such assays
[12] = target: HLA-A*33:01; test: as above
[13] = target: HLA-A*03:01; test: IEDB peptide-MHC binding, cellular MHC/competitive/fluorescence; ≥ and ≤ were set here for values at or beyond the usual limits of such assays; details: source organism: Mammarenavirus choriomeningitidis
[14] = target: HLA-A*26:01; test: IEDB peptide-MHC binding, purified MHC/competitive/radioactivity; ≥ and ≤ were set here for values at or beyond the usual limits of such assays; details: source organism: Vaccinia virus WR
[15] = target: HLA-A*30:02; test: as above; details: source organism: Vaccinia virus WR
[16] = target: HLA-A*02:06; test: as above
[17] = target: HLA-A*02:02; test: as above
[18] = target: HLA-A*02:03; test: as above
[19] = target: HLA-A*23:01; test: IEDB peptide-MHC binding, cellular MHC/competitive/fluorescence; ≥ and ≤ were set here for values at or beyond the usual limits of such assays; details: source organism: Vaccinia virus WR
[20] = target: HLA-A*68:02; test: as above; details: source organism: Vaccinia virus WR
[21] = target: HLA-A*02:01; test: as above; details: source organism: Vaccinia virus WR
[22] = target: HLA-A*01:01; test: as above; details: source organism: Vaccinia virus WR
[23] = target: HLA-A*24:02; test: as above; details: source organism: Vaccinia virus WR
[24] = target: HLA-A*29:02; test: as above; details: source organism: Vaccinia virus WR
[25] = target: HLA-A*68:02; test: IEDB peptide-MHC binding, purified MHC/competitive/radioactivity; ≥ and ≤ were set here for values at or beyond the usual limits of such assays
[26] = target: HLA-A*02:01; test: as above
[27] = target: HLA-A*26:01; test: IEDB peptide-MHC binding, cellular MHC/competitive/fluorescence; ≥ and ≤ were set here for values at or beyond the usual limits of such assays; details: source organism: Vaccinia virus WR
[28] = target: HLA-A*30:02; test: as above; details: source organism: Vaccinia virus WR
[29] = target: HLA-A*31:01; test: IEDB peptide-MHC binding, purified MHC/competitive/radioactivity; ≥ and ≤ were set here for values at or beyond the usual limits of such assays
[30] = target: HLA-A*23:01; test: as above; details: source organism: Vaccinia virus WR
[31] = target: HLA-A*24:02; test: as above; details: source organism: Vaccinia virus WR
[32] = target: HLA-A*02:02; test: IEDB peptide-MHC binding, cellular MHC/competitive/fluorescence; ≥ and ≤ were set here for values at or beyond the usual limits of such assays; details: source organism: Vaccinia virus WR
[33] = source organism: Mammarenavirus choriomeningitidis
[34] = source organism: Mammarenavirus machupoense
[35] = source organism: Vaccinia virus WR
[36] = source organism: Mammarenavirus guanaritoense
[37] = source organism: Mammarenavirus lassaense
[38] = source organism: Hepatitis B virus

For TLMSIVSSLH, the IC50 [1, 33] was 3950 nM, the IC50 [2, 33] was 6.62 µM and the IC50 [3, 33] was at least 70 µM. For the same sequence, the IC50 [4, 33] was 9.54 µM and the IC50 [5, 33] was 11.4 µM.
MLNNSFYYM was tested, and the IC50 [6, 34] was 4960 nM, the IC50 [7, 34] was 501 nM and the IC50 [8, 34] was 851 nM. For the same sequence, the IC50 [9, 34] was 29.7 µM and the IC50 [10, 34] was 6.95 µM.
TSAYLISIFL was tested, and the IC50 [11, 33] was 1150 nM, the IC50 [12, 33] was 2180 nM and the IC50 [4, 33] was at least 70 µM. For the same sequence, the IC50 [5, 33] was 3.1 µM and the IC50 [13] was 9.21 µM.
Sequence NQGNILMDSI has an IC50 [14] of 2780 nM, an IC50 [15] of 3950 nM and an IC50 [16, 35] of 3090 nM. For the same sequence, the IC50 [17, 35] was 3940 nM, the IC50 [18, 35] was 4040 nM and the IC50 [19] was at least 70 µM. The IC50 [20] was 27.8 µM, the IC50 [21] was 9.85 µM and the IC50 [22] was 24 µM. The IC50 [23] was 67.2 µM and the IC50 [24] was 7.49 µM.
In the case of TQVKELGIAI, the IC50 [16, 35] is reported as 3.9 nM, the IC50 [25, 35] is reported as 1180 nM and the IC50 [26, 35] is reported as 1760 nM. It also gave an IC50 [17, 35] of 2170 nM, an IC50 [18, 35] of 704 nM and an IC50 [27] of 49.6 µM. The IC50 [19] was 38.6 µM, the IC50 [28] was at least 70 µM and the IC50 [22] was at least 70 µM. It also gave an IC50 [23] of at least 70 µM and an IC50 [24] of at least 70 µM.
For TTSLFLHLV, the IC50 [12, 36] was 2270 nM, the IC50 [29, 36] was 726 nM and the IC50 [2, 36] was 11.1 µM. It also gave an IC50 [4, 36] of 15.4 µM.
With VQYRILPMII the IC50 [30] was 567 nM, the IC50 [16, 35] was 395 nM and the IC50 [31] was 1610 nM. For the same sequence, the IC50 [18, 35] was 606 nM, the IC50 [27] was at least 70 µM and the IC50 [28] was 7.85 µM. The IC50 [20] was 21.4 µM, the IC50 [21] was 9.33 µM and the IC50 [22] was 34.6 µM. It also gave an IC50 [24] of at least 70 µM and an IC50 [32] of 10.1 µM.
TSFYLISIFL showed an IC50 [11, 37] of 1910 nM, an IC50 [3, 37] of 31.1 µM and an IC50 [4, 37] of 8.09 µM. It also gave an IC50 [5, 37] of at least 70 µM.
MCISLSTAI gave an IC50 [6, 37] of 192 nM, an IC50 [7, 37] of 211 nM and an IC50 [8, 37] of 1430 nM. It also gave an IC50 [9, 37] of 24 µM and an IC50 [10, 37] of 6.76 µM.
AQQFCQYLI was tested, and the IC50 [30] was 85 nM, the IC50 [15] was 748 nM and the IC50 [31] was 313 nM. It also gave an IC50 [27] of 49 µM, an IC50 [22] of 32.4 µM and an IC50 [24] of 45.4 µM.
FIIFLFILLL was tested, and the IC50 [11, 38] was 3700 nM, the IC50 [16, 38] was 1420 nM and the IC50 [25, 38] was 737 nM. It also gave an IC50 [26, 38] of 105 nM, an IC50 [29, 38] of 692 nM and an IC50 [1, 38] of 139 nM. The IC50 [17, 38] was 441 nM, the IC50 [18, 38] was 181 nM and the IC50 [4, 38] was 7.47 µM.
Work on RQVSVKLLI yielded an IC50 [30] of 835 nM, an IC50 [15] of 519 nM and an IC50 [16, 35] of 0.13 nM. For the same sequence, the IC50 [26, 35] was 250 nM, the IC50 [31] was 2540 nM and the IC50 [18, 35] was 254 nM. The IC50 [27] was 6.34 µM, the IC50 [20] was 15.1 µM and the IC50 [22] was 23.8 µM. The IC50 [24] was at least 70 µM and the IC50 [32] was 17.9 µM.
YQNEVTPEYI was tested, and the IC50 [16, 35] was 2.6 nM, the IC50 [26, 35] was 8.1 nM and the IC50 [17, 35] was 2.7 nM. The IC50 [18, 35] was 0.21 nM, the IC50 [27] was at least 70 µM and the IC50 [19] was 26.9 µM. It also gave an IC50 [28] of 8.74 µM, an IC50 [20] of 8.57 µM and an IC50 [22] of at least 70 µM. It also gave an IC50 [23] of at least 70 µM and an IC50 [24] of 19.4 µM.
With FLFILLLCLI the IC50 [11, 38] was 3690 nM, the IC50 [16, 38] was 934 nM and the IC50 [25, 38] was 4500 nM. The IC50 [26, 38] was 135 nM, the IC50 [29, 38] was 215 nM and the IC50 [1, 38] was 716 nM. The IC50 [17, 38] was 956 nM, the IC50 [18, 38] was 1980 nM and the IC50 [4, 38] was 9.73 µM.
